Data reported in the DeepSol protein solubility set.

Assay: soluble on expression in E. coli; label from the status in PepcDB or PDB records

Sequence | soluble on expression in E. coli
MNSNKELMQRRSQAIPRGVGQIHPIFADRAENCRVWDVEGREYLDFAGGIAVLNTGHLHPKVVAAVEAQLKKLSHTCFQVLAYEPYLELCEIMNQKVPGDFAKKTLLVTTGSEAVENAVKIARAATKRSGTIAFSGAYHGRTHYTLALTGKVNPYSAGMGLMPGHVYRALYPCPLHGISEDDAIASIHRIFKNDAAPEDIAAIVIEPVQGEGGFYASSPAFMQRLRALCDEHGIMLIADEAQSGAGRTGTLFAMEQMGVAPDLTTFAKSIAGGFPLAGVTGRAEVMDAVAPGGLGGTYAGNPIACVAALEVLKVFEQENLLQKANDLGQKLKDGLLAIAEKHPEIGDVRGLGAMIAIELFEDGDHNKPDAKLTAEIVARARDKGLILLSCGPYYNVLRILVPLTIEDAQIRQGLEIISQCFDEAKQ | soluble
MRILHTSDWHLGKNLEGYSRMDEQEEFLEDFIKIVEENNIDMVVIAGDIYDTYNPPARAEKMFYSTLKKISQNGERVTLVIAGNHDNPERLVAAGPLARDHGIIMVGTPKSVVPTGEYGKHKVLSSKEGFIEIEVNGERASIITLPYPSEKRLNEVLYEEMDSEEEKVKSYGDRIKQLFDRLSENFRDDTINMVVSHLFAMGSEEGGSERNVQLGGSFIVNGDCFPKNAQYVALGHVHKPQLVPGTHKIARYSGSPIQYNKKEINFKKKCFLVNIEAGKEPIVDEIEFKVYKPIEVWKCTGVEEAIKKCEENKDRDCWVYLEIVTDKYIGEEEMKAMKSLKKDILEILPKVSVDNEIIDMASFKERPFEEIFKEFYKKERKVEPDNEVVDLLLSIINGGEAEDETHKS | not soluble
MPQFLKGVTLENREGDELPAEEHLKGKIIGLYFSASWCPPCRAFTPKLKEFFEEIKKTHPEFEIIFVSRDRNSSDLVTYFKEHQGEWTYIPFGSDKIMSLMQKYEVKTIPAMRIVNDQGEVIVQDARTEIQNKGENVEGLWAEWMALIK | not soluble
MGSDKIHHHHHHMGKLLTPDDLPIVRGRVYHLDLAPEELARRVIVVGDPDRVPVLAEELLALREVDRFHRGFRTITGVTAETGQRVSFVTSGIGAPSTEIVLNELAALNEVDFASMTRRERWQPLTLVRLGTSGGLNPVTPVGTLILTDYVVGLDNTALYYDIPLPDEACALLEEKVGSVLTGTELPGARFAGKIAPYAARSDRGLLASLTAAASTLELNWTRGLTISSAGFFAEQGRGVARVGTTQVNLLDAFERLASPWPGLELQNMEMEAGFFLHFLGGMRYRAAVVCVVINQRSSGVFMADYRRQVLDGARLILRAFKEYGDARAKSGALA | not soluble
MLSRAGKHRQLPSLRASQAEASPICSELEDKHKNVQEPDGISNHFLQEKKFAGSESKEYKRKDVVLYREKLLAPEVTNLVSREQMMMHPRDQYLHVLSPYCYSAIEVSHAVFSIFAYIVCDVNWSREYCSKHTTCKQDFKTMIIAVMREYLSMGEAADISRLPRAAMFNLQQAGQLATPTASGTQRRAEPETYVDLHALSDKINHLKTHCNYQIRRDRAFPPMVNLFEIEPRVPVKMSYFLAECKTYGIHQCLHPVSATVKQIDQAFLPAWKARVLFMLGWMDNFFDEDMDDLKRCIRKAINFKVPLKTWESEEDLMVVILEQNQAKLKLARECLTTISKCEHADPHDWLHCNRKRRERHFIVCEYKNPGIWHSSEILKISLKILRQCMGHATLDLKEVNVKSENKIGSDASPDVPLDKKKLKRQKQKLRKAAEPPEPTPPPPPPVIPVPEAKPCEKCFRTSERCNKANAELKTSLNKIKILEKKLSAEKRAFKENQETWEKKLEELQTELQAKERTIQEFQDKVAPKCAESVSDGFLRDGEELIATFDVTSSNATEEFESECIICREDIDLENGTVQCPRCTEIYHSHCATQWLSQKPTCPKCIFHIGHINEFPSLV | not soluble
MKSTSMNTNKRFQNVNQWKLHASAAAYLAGWKVVRLLPEPVAYRLFSWAAVIASRRGRGMDQLRRNLTRVVGAESVDRALVKRSMQSYARYWCEAFRLSVIARDPDVIHRVDAHAVGVEQVNPHSPMIIVLPHSGNWDLIGMYFVKKVGTFTTVAERVKPESLFRAFVNYRRSLGFEVLPLTGSETSPYSVLLQRVREGRTVCLLGERDLTSHGVEVEFFGETTRMPAGAVKLALDSGAPLHVAHTWFEGDDWGLSLSEPVEITDVKSGVQAIAQIMEKNIKAHPQDWHLLQPLWINDLDRRRYESGLQPKND | not soluble
MRDSPTHKEQRAQNTMSDQMPFPFNNFTYFFTLFSKFFSSFHHCTCSLSVSRQYLALDGIYHPLRAAFPNNSTLRRHFTKNRTPRHTGFSPSMTSCSKEHRQGTAPKLPSPNYNSGTEGTRFQI | not soluble
MSLYKVTRGKSEQYLKDERALEDYLIATGLDDCAFKLANGEVRGGRDLLALVEDARAIRSTLHNLHSRYNRSVVEQAAIAGVLSPRITTDIATANEAAAYIARRLDALADEVERGWVGHFTEGEGFRFERTVRGVKEVAAIDDAMLGSADARKLDEYAAVLQEVYPRPGVLRRKEAETAIHGPISLFEAVTDAGRKGVALQRYKGLGEMNPSQLWETTLDTNARSLLQVKVREVDEADDIFTKLMGDVVEPRREFIQENSLHATVDVEGHHHHHH | soluble
MAQFTEDEKIMRRLEQRFNKGVVKYRLIEDGDKILIGLSGGKDSLALLELLARRSRILKPKFTVIAVHVGMTNIPYQSDLEYLKGYSEDLGVPFVHYETFFDPSTDTRKSPCFLCSWNRRKALFTVAKEQGCNKIALGHHMDDILETLLMNITFQGAFSTMPPKLVMRKFEMTIIRPMCLVHEADLIEMARIRGFRKQIKDCPYESLSNRSNMKEVLYSLEKMNPEARYSLWKCMTNIQEELLPGMNEHDL | not soluble
MTIAKDYRTIYRNQIKKQIRLNQEHLQSLTHLGSQINFEVDPPKLPDPDPARKVFFFDIDNTLYRKSTKVQLLMQQSLSNFFKYELGFDDDEAERLIESYYQEYGLSVKGLIKNKQIDDVLQYNTFIDDSLPLQDYLKPDWKLRELLINLKKKKLGKFDKLWLFTNSYKNHAIRCVKILGIADLFDGITYCHYDRPIEEEFICKPDPKFFETAKLQSGLSSFANAWFIDDNESNVRSALSMGMGHVIHLIEDYQYESENIVTKDHKNKQQFSILKDILEIPLIMDVEVYRPSSIAIKEMEELEEEGEAVNWSNQQINVQSS | soluble
MGSDKIHHHHHHMSDTHIGAKSLTIEEREQDYYDTFQEAVEIAIDEKVDFIIHSGDLFDTWIPGNRSMKVFRDAMMKLNDRQIPVFYVFGDHDRPRRNSESAAGIFDFLGLHILGRDEFAGIEREFSGMKVFIGGISNMKGYLRNQLKEEYKKAESASTGYKNSILISHQALDPIFIPEQCEAKVNDLPMNYSYIAMGHLHDFVEREIGPLLSYPGSTELKSDREINGLLKMGKGINVIDLDNGVASLHRVKLKKVRYQFKVESDPENYLEEIKSILDKYANAIGEKKPIVNLIINGQISMEEVYEDLKKINGAIFNRPQILKIVDMPNVPSGSSELREYFQAFLKDQKLTDLAMKVFQHTADGDKEAIIREAAGEAIDN | not soluble
MVSYGSHSSEVSKVLKTPKFVLRYGNVSSKQRFALKRKINYKLRESKYQEYLNEYNTFVLYDWENSGAGSLVDSSYNLPSLWKEFITEGISKGAINDKLPTVFMKRKLTNSALGHCLGLDFLTDPSESEHEYRCMFQTVQDIPSLSQLILFNSMPNVPVRLKLHTIGININFGCKRSLISNGGDQDTEMSEAVSYIQPLLEESSRMYRNLNYWKLLKIARNNKKDEPLDQSTRIKSQVKLLLSQLATNRITSPSVTDHGGHNWLIFTRRRL | not soluble
MNLIKEDMRVKVHMEGNVNGHAFVIEGEGKGKPYEGTQTANLTVKEGAPLPFSYDILTTAVHYGNRVFTKYPEDIPDYFKQSFPEGYSWERTMTFEDKGICTIRSDISLEGDCFFQNVRFKGTNFPPNGPVMQKKTLKWEPSTEKLHVRDGLLVGNINMALLLEGGGHYLCDFKTTYKAKKVVQLPDAHFVDHRIEILGNDSDYNKVKLYEHAVARYSPLPSQVWHHHHHH | soluble
